# Source: patent US20210253711A1
# B1: 16F10.C12 (antibody, V domains shown)
# VH: EVQLQESGPGLVAPSQSLSITCTVSGFSLTAFGVNWVRQPPGKGLEWLGMIWGDGNTDYNSTLRSRLSISKDNSKSQVFLKLNSLQTDDTARYFCARETYYGNYAGLGYWGQGTLVTVSA
# VL: QIVLTQSPAIMSASIGERVTMTCTASSSVSSNYLHWYQQKPRSSPKLWIYTTSNLASGVPTRFSGSGSGTSYSLTISSMEAEDAATYYCHQFHRSPFTFGSGTKLEIK
# B2: 3F9.E4 (antibody, V domains shown)
# VH: EVQLQESGEGLVKPGGSLKLSCAASGFTFSNYAMSWVRQTPEKRLEWVAYISPGGDYIYYADTVKGRFTISRDNARNTLYLQMSSLKSEDTAMYYCTTDRRHYGSYAMDYWGQGISVTVSS
# VL: DIVMTQAAPSVPVTPGESVSISCRSSKSLLHSNGNTYLYWFLQRPGQSPQLLIYRMSNLASGVPDRFSGSGSGTAFTLRISRVEAEDVGVYYCMQHLEYPFTFGSGTKLEIK
# Target: MICA antigen of Table 2 (purified 6×His-MICA*08 or 6×His-MICA*04) (UniProt Q29983)
# Test: BLI (Octet Red96), mAb captured on anti-mouse IgG Fc biosensors, His-tagged MICA in solution, 1:1 model
Binder,Kd [nM],koff [s⁻¹],kon [M⁻¹ s⁻¹]
B1,6.45,0.000548,93300
B2,1.18,0.000421,383000
